Reference: PMC3020918

Target: YFP(N)-Sso1p (S. cerevisiae) (UniProt P32867)
Experiment: split reporter

Sequence of UniProt P32867 (P32867 whole entry): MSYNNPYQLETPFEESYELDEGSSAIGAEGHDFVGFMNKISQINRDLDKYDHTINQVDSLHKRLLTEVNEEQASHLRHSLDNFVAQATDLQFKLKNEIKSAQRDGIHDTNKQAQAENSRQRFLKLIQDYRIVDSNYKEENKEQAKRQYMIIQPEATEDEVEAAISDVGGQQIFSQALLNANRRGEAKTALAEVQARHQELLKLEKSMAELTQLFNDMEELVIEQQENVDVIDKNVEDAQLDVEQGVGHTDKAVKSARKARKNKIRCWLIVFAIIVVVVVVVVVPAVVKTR

Sec1p(658–724)-YFP(C) (from UniProt P30619 658-724) (domain or fragment)
percent stronger BiFC signal than Sec1p(658–724)-Sso2p: 22%
